Experiments:
Experiment in all cases: SPR, antibody captured, C2 as analyte;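 note: biacore SPR at 37 °C, anti-C2 mAbs captured via goat anti-human IgG on CM5 chips, double-referenced sensorgrams fit to a 1:1 kinetic or steady-state model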
[1] = molecular target: T1, human C2 S713A (human, UniProt P06681 21-752)
T1 sequence: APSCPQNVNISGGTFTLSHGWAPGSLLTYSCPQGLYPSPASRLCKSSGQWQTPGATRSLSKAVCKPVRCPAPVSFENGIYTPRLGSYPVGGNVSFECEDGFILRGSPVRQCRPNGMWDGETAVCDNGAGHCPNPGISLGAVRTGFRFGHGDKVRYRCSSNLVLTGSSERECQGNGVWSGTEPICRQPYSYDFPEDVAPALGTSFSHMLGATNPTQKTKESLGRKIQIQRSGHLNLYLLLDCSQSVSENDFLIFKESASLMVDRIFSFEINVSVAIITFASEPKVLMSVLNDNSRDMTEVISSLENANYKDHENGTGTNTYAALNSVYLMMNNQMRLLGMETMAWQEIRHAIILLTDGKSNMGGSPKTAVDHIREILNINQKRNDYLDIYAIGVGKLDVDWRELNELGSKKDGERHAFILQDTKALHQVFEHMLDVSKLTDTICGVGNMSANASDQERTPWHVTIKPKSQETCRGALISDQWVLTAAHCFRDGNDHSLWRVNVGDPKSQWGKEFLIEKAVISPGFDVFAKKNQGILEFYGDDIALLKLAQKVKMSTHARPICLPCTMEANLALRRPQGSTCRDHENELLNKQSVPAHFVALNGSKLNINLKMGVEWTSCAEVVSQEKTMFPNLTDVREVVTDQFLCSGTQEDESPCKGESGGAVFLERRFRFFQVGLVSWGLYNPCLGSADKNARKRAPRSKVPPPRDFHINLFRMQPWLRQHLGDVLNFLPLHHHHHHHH
Protocol: (§1) Surface plasmon resonance (SPR, Biacore) was used for all binding affinity analyses. In brief, goat anti-human IgG was directly immobilised onto the carboxymethyl dextran surface of CM5 sensorchips to approximately 12,000 RU using standard NHS/EDC chemistry at pH 5. The immobilised antibody surface was pre-conditioned with ten injections of polyclonal human IgG (Privigen 60 s) prepared at 1 μg/mL. Ligands (anti-C2 mAbs) were captured at the beginning of each cycle as described below. An adjacent spot or flow cell in which only Polyclonal IgG was capture was used as a reference surface. The goat anti-human IgG Fc antibody surface was regenerate in 100 mM H3PO4, injected for 45 seconds at the end of each cycle. Experiments were performed at 37° C. and the flow rate of each experiment was kept constant at 30 μL/min.
(§2) Sensogram data was double-referenced against a reference anti-IgG surface (i.e. minus anti-C2 mAb) and blank buffer injections obtained within each experiment. The binding data was fit to 1:1 (kinetic or steady-state) model using local Rmax and null refraction index (RI=0) when appropriate. Buffers and solutions were filtered (0.22 μm) prior to use.

[2] = molecular target: T2, human C2 A717S (human, UniProt P06681 21-752)
T2 sequence: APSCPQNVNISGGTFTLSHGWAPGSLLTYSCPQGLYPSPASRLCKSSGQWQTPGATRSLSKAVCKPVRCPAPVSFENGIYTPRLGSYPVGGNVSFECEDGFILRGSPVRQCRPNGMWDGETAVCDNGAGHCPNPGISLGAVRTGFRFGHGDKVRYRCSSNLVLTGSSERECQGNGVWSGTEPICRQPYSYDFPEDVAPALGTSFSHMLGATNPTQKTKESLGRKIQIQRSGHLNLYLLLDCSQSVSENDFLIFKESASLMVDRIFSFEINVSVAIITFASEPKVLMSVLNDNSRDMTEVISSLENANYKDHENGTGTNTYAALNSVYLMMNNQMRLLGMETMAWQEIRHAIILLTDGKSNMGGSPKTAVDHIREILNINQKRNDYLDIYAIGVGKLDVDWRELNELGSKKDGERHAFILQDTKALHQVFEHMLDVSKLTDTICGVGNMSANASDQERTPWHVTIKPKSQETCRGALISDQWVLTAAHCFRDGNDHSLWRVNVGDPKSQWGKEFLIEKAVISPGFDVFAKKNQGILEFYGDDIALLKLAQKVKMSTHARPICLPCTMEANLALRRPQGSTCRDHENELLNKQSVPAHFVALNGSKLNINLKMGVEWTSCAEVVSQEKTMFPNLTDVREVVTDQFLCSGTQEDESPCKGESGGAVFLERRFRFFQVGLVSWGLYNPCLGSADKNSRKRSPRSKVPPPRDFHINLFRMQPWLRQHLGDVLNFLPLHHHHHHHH
Protocol: as §1, §2

[3] = molecular target: T3, human C2 D511A (human, UniProt P06681 21-752)
T3 sequence: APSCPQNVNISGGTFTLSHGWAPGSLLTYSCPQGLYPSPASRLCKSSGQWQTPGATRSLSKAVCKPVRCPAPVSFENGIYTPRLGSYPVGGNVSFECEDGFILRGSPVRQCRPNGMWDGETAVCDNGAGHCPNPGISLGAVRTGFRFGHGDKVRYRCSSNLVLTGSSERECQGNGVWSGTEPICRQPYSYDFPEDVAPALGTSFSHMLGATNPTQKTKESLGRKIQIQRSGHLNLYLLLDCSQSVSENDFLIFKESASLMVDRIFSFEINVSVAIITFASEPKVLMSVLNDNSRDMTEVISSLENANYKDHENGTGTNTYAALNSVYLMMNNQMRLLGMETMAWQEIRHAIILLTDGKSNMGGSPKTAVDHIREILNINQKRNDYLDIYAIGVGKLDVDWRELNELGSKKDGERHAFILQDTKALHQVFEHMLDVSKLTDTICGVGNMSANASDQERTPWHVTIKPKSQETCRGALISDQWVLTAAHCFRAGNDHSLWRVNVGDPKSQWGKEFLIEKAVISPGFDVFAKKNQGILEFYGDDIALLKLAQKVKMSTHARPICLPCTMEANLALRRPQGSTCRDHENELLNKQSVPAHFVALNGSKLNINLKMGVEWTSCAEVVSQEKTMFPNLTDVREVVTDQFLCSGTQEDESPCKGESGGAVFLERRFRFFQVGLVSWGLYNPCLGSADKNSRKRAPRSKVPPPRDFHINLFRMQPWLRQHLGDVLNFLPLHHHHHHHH
Protocol: as §1, §2

[4] = molecular target: T4, human C2 E686A (human, UniProt P06681 21-752)
T4 sequence: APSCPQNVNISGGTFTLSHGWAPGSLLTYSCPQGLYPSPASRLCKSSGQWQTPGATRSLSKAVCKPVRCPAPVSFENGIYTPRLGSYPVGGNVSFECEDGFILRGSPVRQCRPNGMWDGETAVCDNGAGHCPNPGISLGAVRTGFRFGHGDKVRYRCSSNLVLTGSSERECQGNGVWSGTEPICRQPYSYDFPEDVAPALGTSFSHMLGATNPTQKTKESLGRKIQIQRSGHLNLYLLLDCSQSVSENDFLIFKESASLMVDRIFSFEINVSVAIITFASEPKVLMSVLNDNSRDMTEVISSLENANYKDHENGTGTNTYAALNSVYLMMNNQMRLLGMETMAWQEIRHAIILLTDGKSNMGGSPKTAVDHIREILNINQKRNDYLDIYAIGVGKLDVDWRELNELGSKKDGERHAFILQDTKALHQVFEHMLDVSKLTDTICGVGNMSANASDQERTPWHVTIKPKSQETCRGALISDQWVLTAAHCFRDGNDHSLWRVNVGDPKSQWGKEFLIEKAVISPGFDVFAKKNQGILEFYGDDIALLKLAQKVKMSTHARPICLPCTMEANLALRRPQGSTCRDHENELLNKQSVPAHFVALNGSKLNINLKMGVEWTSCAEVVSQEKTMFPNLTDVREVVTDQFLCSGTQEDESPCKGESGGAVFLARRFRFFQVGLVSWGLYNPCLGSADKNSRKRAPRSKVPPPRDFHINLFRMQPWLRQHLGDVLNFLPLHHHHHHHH
Protocol: as §1, §2

B1: RF16-226 (antibody, human IgG4 S228P, lambda)
heavy: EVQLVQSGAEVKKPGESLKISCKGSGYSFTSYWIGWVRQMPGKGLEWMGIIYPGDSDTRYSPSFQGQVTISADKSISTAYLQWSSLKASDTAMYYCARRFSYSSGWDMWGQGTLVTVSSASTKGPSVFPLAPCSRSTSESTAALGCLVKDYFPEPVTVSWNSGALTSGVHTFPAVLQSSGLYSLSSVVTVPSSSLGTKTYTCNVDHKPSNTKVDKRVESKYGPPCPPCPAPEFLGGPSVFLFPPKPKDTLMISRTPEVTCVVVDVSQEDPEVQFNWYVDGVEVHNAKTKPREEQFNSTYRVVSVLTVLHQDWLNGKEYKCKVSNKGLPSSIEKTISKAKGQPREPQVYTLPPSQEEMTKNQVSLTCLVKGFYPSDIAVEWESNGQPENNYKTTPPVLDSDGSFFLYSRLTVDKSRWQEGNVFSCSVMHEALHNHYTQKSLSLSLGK
light: SYELTQPPSVSVSPGQTARITCSGDALTSKYVAWYQQKSGLAPLLVIYEDTRRPSGIPAKFSGSSSGSVATLTISGAHGDDEADYYCYSTDASGHQRVFGGGTKLTVLSQPKAAPSVTLFPPSSEELQANKATLVCLISDFYPGAVTVAWKADGSPVKAGVETTKPSKQSNNKYAASSYLSLTPEQWKSHRSYSCQVTHEGSTVEKTVAPTECS
notes: pH-dependent anti-C2 antibody from a phage display library; also called WT
B1 showed a Kd [1] of 19 nM, a Kd [2] of 406 nM and a Kd [3] of 31.2 nM. The Kd [4] was 47.3 nM.
